{
  "source": "paper PMC8131568",
  "about": "“A noncanonical heme oxygenase specific for the degradation of c-type heme” (The Journal of Biological Chemistry, 2021)",
  "proteins": {"B1": {"name": "Pden_1323 (enzyme, Paracoccus denitrificans PD1222)", "chain": "MKIDPIRETTDEARALARQLLEAARHASLGTLDPETGVPLVTRIALQTDADGVPLALLAGLAAHARALAVDPRAGLLIAAEAAKGDAMTHARLSILGRAVPAEPDENRRARWLERDPKAKVYLDLPDFRFWRIEPVSGLLNAGFGQAFKLTASDMLKPPAE", "notes": "Pden_1323, product of the pden_1323 gene of Paracoccus denitrificans PD1222 (opp gene cluster), codon-optimized and cloned NdeI/XhoI into pET-28b(+); HugZ homolog; also called c-type heme oxygenase; CHO; source: Superdex 200 for crystallography; not shown: His-tag, N-terminal, cleaved"}},
  "molecular_target": "the molecule itself",
  "test": "crystal structure; Pden_1323 alone at 12 mg/ml; sitting-drop vapor diffusion; 14% glycerol, 18 to 25% PEG 4000, 0.3 M sodium acetate, 0.1 M Tris pH 8.8",
  "data": [
    {"protein": "B1", "values": [
      {"measurement": "binding result", "value": "binds"}
    ]}
  ]
}
